Measurements: paper PMC6128652, “Structure of the Cladosporium fulvum Avr4 effector in complex with (GlcNAc)6 reveals the ligand-binding mechanism and uncouples its intrinsic function from recognition by the Cf-4 resistance protein” (PLoS Pathogens, 2018)
Entries after “also recorded” stand apart in the source; their conditions may differ.

Columns and labels:
[1] = Isothermal titration calorimetry (ITC) of CfAvr4 variants with chitin hexasaccharide; type: binding; settings: compared with PfAvr4
Experimental: A stock solution of the monomer of N-acetylglucosamine was prepared by dissolving the dry powder in a buffer containing 10 mM Bis-Tris, pH 6.5, 100 mM NaCl to a concentration of 0.100 g/L using analytic techniques. Standard solution of 0, 0.010, 0.025, 0.050, 0.075 g/L were prepared by serial dilutions. Using glass test tubes and pipets, 100 μL of each standard was mixed with 300μL of concentrated sulfuric acid and vortexed for 10 sec to mix. Solutions were incubated at RT for 10 min and then placed on ice to stop the reaction. […] Analytically prepared solution of the di- and tri-saccharide scaled linearly to the calibration curve. To determine the concentration of the chitin hexasaccharide solutions used in ITC, the solutions were diluted into the dynamic range of the calibration curve (S12 Fig) and subjected to the above procedure.
All ITC experiments were performed on a TA Instruments low volume NanoITC with a 186uL reaction cell and a reference cell filled with degassed Milli-Q grade water. Reactions were run in a buffer containing 10mM Bis-Tris, pH 6.5, 100 mM NaCl. The reservoir solution was filled with protein solution and continuously stirred while Chitin hexasaccharide solutions titrated in 2.5μL aliquots for 19 injections, with an initial 1μL injection, for a total injection volume of 48.5μL. The carbohydrate solutions were made by dissolving the dry powder in buffer to a concentration of 20mM (confirmed using methods described above) and then diluted to the working concentration using the final buffer exchange flow through to match the buffers as closely as possible. The integrated heats, after correction for the heat of dilution were analyzed using the NanoAnalyze software from […]. An individual binding site model was used to fit the binding isotherm. All experiments were replicated a minimum of three times.

[2] = tested on: germlings of Trichoderma viride; assay: In vitro protection assay of T. viride germlings against chitinases; type: cell-based; settings: 5 μM protein with chitinases and β-1,3-glucanases
Experimental: The ability of the WT-CfAvr4 and of ChBD mutants to protect against chitinases was evaluated in in vitro protection assays conducted as described before. Briefly, spores of T. viride (3∙10^3) were pre-germinated overnight at room temperature in 100 μl of half-strength PDB medium in 96 well plates. The following day, 5 μM of WT-CfAvr4 or ChBD mutants were mixed with 7.5 units of Zymolyase (Zymo Research cat. no. E1004) and 0.2 units of bacterial chitinases (Sigma-Aldrich cat. no. C6137) and the mixture was added to the microtitre plate wells containing the pre-germinated spores in a final volume of 150 μl. Plates were incubated at 25°C for 6–8 h before evaluating under the microscope fungal growth and the ability of the proteins to provide protection against chitinases. Zymolase has β-1,3 glucanase and β-1,3-glucan laminaripentaohydrolase activity and is added to the mixture in order to remove the surface glucans from the fungal cell wall and thus expose the underlying chitin layer.

Cf-4 immune receptor = assay: Pure protein infiltrations into tomato leaves of cv Purdue 135 (+ Cf-4), hypersensitive response; type: in vivo; settings: both 5 μg/ml and 10 μg/ml, 5 dpi
Excerpt: Tomato seeds were obtained from the Tomato Genetic Resource Center (TGRC) at UC Davis. WT-CfAvr4 and mutants thereof with single point mutations at selected amino acids were produced and purified from E. coli Rosetta-gami B cells as description above. […]

[3] = tested on: tomato leaves of cv Moneymaker (–Cf-4); assay: Pure protein infiltrations into tomato leaves of cv Moneymaker (–Cf-4), hypersensitive response; type: in vivo
Experimental: Tomato seeds were obtained from the Tomato Genetic Resource Center (TGRC) at UC Davis. WT-CfAvr4 and mutants thereof with single point mutations at selected amino acids were produced and purified from E. coli Rosetta-gami B cells as description above. Proteins were infiltrated at a concentration of 5 μg/mL and 10 μg/mL into the back side of MM or Purdue 135 tomato leaves using a one mL syringe and the HR response was recorded at 6 days post-infiltrations.

Cf-4 = assay: Agrobacterium tumefaciens transient transformation assay (ATTA): co-expression with Cf-4 in Nicotiana benthamiana leaves; type: in vivo; settings: N. benthamiana, three cell density ratios 0.5:1, 1:1, 2:1
Experimental: The Agrobacterium tumefaciens transient transformation assay (ATTA) was used for the transient co-expression into leaves of Nicotiana benthamiana of Cf-4 with the WT-CfAvr4 and the mutants thereof tested in this study. Briefly, N. benthamiana plants were grown in a growth chamber with 16 h of artificial light and 70% humidity, at 25°C for 4 weeks. The true mature form of the WT-CfAvr4 (i.e. between Lys30-Gln115) and of the mutants thereof were singly cloned into the binary expression vector pICH47742 downstream of the PR1A signal sequence of Nicotiana tabacum for targeted secretion into the apoplast, and under the control of CaMV 35S promoter and NOS terminator. The tomato Cf-4 was cloned into pMOG800 as descripted before. Binary vector plasmids were transformed into A. tumefaciens strain GV3101 by electroporation. For the ATTA assay, agrobacteria transformed with pMOG800:Cf-4 was grown in 10mL LB-mannitol medium (LB medium with 10 g/L mannitol) amended with 50 μg/mL kanamycin and 25 μg/mL rifampicin, whereas agrobacteria transformed with pICH47742:WT-CfAvr4 or pICH4774:CfAvr4-mutants were grown in LB-mannitol amended with 100 μg/mL carbenicillin and 25 μg/mL rifampicin. All cultures were incubated at 28°C for 2 days, after which period they were pelleted at 2800g for 15 min, re-suspended in MMAi medium (5 g/L Murashige and Skoog basal salts, 20 g/L sucrose, 10 mM MES, and […]) at an optical cell density (A600) of 2.0, and further incubated for 2–4 h at room temperature. Agroinfiltrations were performed by mixing agrobacteria containing pMOG800:Cf-4 with agrobacteria containing pICH47742_WT-CfAvr4 or pICH47742:CfAvr4-mutants at three different ratios of optical cell densities, i.e. A6000.5:A6001.0, A6000.5:A6000.5, and A6000.5:A6000.25 of. The mixture of agrobacteria was infiltrated into the leaves of N. benthamiana plants using a 1 mL syringe and the induction of an HR in the infiltrated leaf sectors was evaluated at 5 days post-infiltrations. Control infiltrations were made using only the pMOG800:Cf-4 transformed agrobacteria and the agrobacteria containing pICH47742:CfAvr4 or the mutants thereof without mixing the two cultures, at cell densities of A6000.25, A6000.5, and A6001.0.

subtilisin = assay: Subtilisin treatment (resistance against proteolytic degradation); type: in vitro ADME; design: key to Stability (Subtilisin assay): S: stable; PU: partially unstable; settings: 500 ng/μL subtilisin, 30 min, room temperature
Experimental: The WT-CfAvr4 and selected mutants thereof were exposed to the non-specific protease subtilisin in order to determine their resistance against proteolytic degradation. Treatments with subtilisin were made as previously described with minor modifications. Briefly, 40 μM of the E. coli-produced CfAvr4 and the selected CfAvr4 mutants were mixed with 10 mM of calcium chloride and 500 ng/μL of subtilisin (Sigma-Aldrich) in a total volume of 15 μL. Samples were incubated for 30 min at room temperature, after which period they were denatured by mixing with 10 mM PMSF and SDS-PAGE loading buffer, and heating at 98°C for 10 min. Digestion products were visualized on an SDS-PAGE after staining with Coomassie blue.

B1: WT-CfAvr4: wild-type Avr4 effector protein of Cladosporium fulvum, CBM14 chitin-binding lectin, E. coli-produced mature form Lys30-Gln115 (protein)
chain: KAPKTQPYNPCKPQEVIDTKCMGPKDCLYPNPDSCTTYIQCVPLDEVGNAKPVVKPCPKGLQWNDNVGKKWCDYPNLSTCPVKTPQ
modifications: left off: 6x His (two), N-terminal, cleaved
higher binding affinity for (GlcNAc)6 than PfAvr4 [1]: 10 fold
morphology of hyphae after chitinase treatment [2]: remained morphologically intact
protection of fungal hyphae against chitinases, fungal growth ([2]; 6–8 h): enabled fungal growth and survival; also recorded: able to protect hyphae
Cf-4-mediated HR after protein infiltration (Cf-4 immune receptor): strong and equal in intensity HR; also recorded: strong hypersensitive response (HR); also recorded: strong and equally in intensity necrosis
HR after protein infiltration [3]: none of the mutants or the WT-CfAvr4 induced an HR; also recorded: None of the proteins, WT-CfAvr4 or mutants, elicited an HR
HR on transient co-expression with Cf-4 (Cf-4): strong and similar in intensity HR
Stability (Subtilisin assay) (subtilisin): S
